According to the supplement of paper PMC10201428:
± gives the standard deviation of the averaged measurements.

B1: library; a variant is named by its letters at N, in order (parent)
chain: AATGTTGTTGATGCAACCATAAAGTGATATTTAATAATTATTTATAATCAGCAACTTAACCACAAAACAACCATATATTGATATNTCACAAAACAACCATAANTTGATATTTTTGTGAATCGAGTATTTCAGCAAAACTACTGCAGTAAGAA

Key:
[1] = variants of: B1; assay: relative integration efficiency (T-LR orientation) vs wild-type transposon end (log2 (normalized fold change)); transposon end mutated: left end; higher = more efficient transposition; conditions: with VchCAST RNA-guided transposition machinery (E. coli BL21(DE3) host, lacZ target)
How it was run: (§1)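 In E. coli BL21(DE3), a T7-driven effector plasmid was paired with a pUC57 mini-transposon donor containing 1549 left-end or 1849 right-end barcoded transposon variants. Cells grew on plates with 0.1 mM IPTG at 37°C for 18 h. Relative integration efficiency was derived from Illumina reads of genomic integration junctions against input plasmids, as a log-transformed output/input barcode fold change normalised to reference barcodes.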

[2] = variants of: B1; assay: relative integration efficiency (T-RL orientation) vs wild-type transposon end (log2 (normalized fold change)); transposon end mutated: left end; higher = more efficient transposition; conditions: with VchCAST RNA-guided transposition machinery (E. coli BL21(DE3) host, lacZ target)
How it was run: as §1

Variant | relative integration efficiency (log2) [1] | relative integration efficiency (log2) [2]
CG T56G T57G | -1.54 ± 0.34 | -1.59 ± 0.66
CG T28A T82A T108A | -2.22 ± 2.1 | -1.09 ± 0.57
CG T25A T79A T105A | -3.4 ± 0.079 | -1.88 ± 0.86
CG T20G A21C A22C A23C | -2.4 ± 0.83 | -3.18 ± 0.88
TG T76A A77G C87T | 0.266 ± 0.15 | -0.247 ± 0.35
CG T108G A109C T110G T111G | -2.71 ± 1.1 | -1.63 ± 0.69
CG T100A | 0.42 ± 1 | 0.66 ± 0.49
CG T100G | -0.934 ± 1.6 | -0.706 ± 0.73
CG T100C | -2.04 ± 0.83 | -1.27 ± 0.52
CG T28C | -0.0735 ± 0.44 | -0.273 ± 0.15
CG T28G | -0.845 ± 0.19 | -0.536 ± 0.28
CG T28A | -0.399 ± 0.64 | -0.37 ± 0.28
CG T100G A101C | -3.81 ± 1.3 | -2.16 ± 0.7
CG T104G T105G | -1.76 ± 0.75 | -1.3 ± 0.71
CG T35A A36T | 0.24 ± 0.31 | 0.1527 ± 0.00087
CG T100A A101T | -0.623 ± 0.79 | -0.364 ± 0.49
CG T48A C49A A50T C52T A53G C55G T56C T57G A59G C60T C61A A66C A67C | 0.607 ± 0.81 | -5.05 ± 1.9
CG T41G T42G T43G A44C | 0.146 ± 0.074 | -0.195 ± 0.099
AG T82G A83C T84G | -1.31 ± 0.38 | -1.7 ± 0.88
CG T78C | 0.27 ± 0.3 | -0.0794 ± 0.1
CG T78A | -0.0877 ± 0.12 | 0.0885 ± 0.016
CG T78G | 0.198 ± 0.14 | -0.0793 ± 0.054
CG T42A T43A | 0.176 ± 0.54 | -0.0273 ± 0.049
CG T35A A36T A37T T38A | 0.322 ± 0.34 | 0.354 ± 0.019

Variant | relative integration efficiency (log2) [1] | relative integration efficiency (log2) [2]
CG T56C | -0.129 ± 0.16 | -0.2 ± 0.061
CG T56A | 0.188 ± 0.11 | -0.167 ± 0.0046
CG T56G | -0.0431 ± 0.26 | -0.112 ± 0.12
CG T25G G26T A27C T28G | -2.73 ± 1.1 | -2.55 ± 0.99
CG T48C | -0.224 ± 0.18 | -0.219 ± 0.15
CG T48A | 0.212 ± 0.68 | 0.162 ± 0.22
CG T48G | 0.0472 ± 0.93 | 0.24 ± 0.2
CG T48G C49A | -0.72 ± 0.49 | -0.681 ± 0.47
CG T25A G26C A27T T28A | -2.09 ± 0.86 | -2.28 ± 0.71
CG T41G T42G | 1.22 ± 0.23 | 0.0624 ± 0.23
CG T86G C87A A88C C89A | -0.0346 ± 0.016 | 0.0789 ± 0.1
CG T31A T32A A33T A34T | 0.0738 ± 0.43 | -0.0923 ± 0.16
CG T82G A83C | -1.19 ± 0.87 | -1.4 ± 0.66
CG T45G A46C A47C T48G | -0.0893 ± 0.7 | -0.487 ± 0.43
CG T43A A44T | 0.162 ± 0.35 | -0.0354 ± 0.012
CG T43C | -0.00723 ± 0.047 | -0.241 ± 0.11
CG T43A | 0.341 ± 0.042 | 0.0102 ± 0.024
CG T43G | -0.00931 ± 0.27 | -0.28 ± 0.043
CG T57C | -0.422 ± 0.61 | -0.546 ± 0.31
CG T57A | -0.137 ± 0.84 | 0.139 ± 0.15
CG T57G | -1.94 ± 0.91 | -1.33 ± 0.56
CG T110A T111A | -0.344 ± 0.074 | -0.513 ± 0.22
CG T43G A44C T45G A46C | 0.536 ± 0.48 | -0.504 ± 0.27
CG T42G T43G A44C T45G | 0.391 ± 0.16 | -0.108 ± 0.12

Variant | relative integration efficiency (log2) [1] | relative integration efficiency (log2) [2]
CG T76A A77T T78A T79A | -0.702 ± 1.2 | -0.611 ± 0.38
CG T39G A40C | -0.0204 ± 0.26 | -0.535 ± 0.23
CG T78A T79A G80C A81T | -1.07 ± 0.89 | -1.38 ± 0.59
CG T39A A40T T41A T42A | 0.453 ± 0.17 | 0.475 ± 0.019
CG T25A G26C | -1.33 ± 1.5 | -1.73 ± 0.85
CG T108A A109T T110A T111A | -1.21 ± 0.27 | -0.957 ± 0.51
CG T31G T32G A33C A34C | -0.805 ± 0.2 | -0.592 ± 0.32
AG T84G T86G C87A | 0.381 ± 0.25 | 0.0958 ± 0.22
GG T84A T86A C87G | 0.0518 ± 0.56 | -0.036 ± 0.31
CG T35G A36C A37C T38G | 0.209 ± 0.74 | 0.203 ± 0.092
CG T105G G106T | -0.649 ± 0.86 | -1.2 ± 0.72
CG T32A A77C T86G | -0.351 ± 0.47 | -0.197 ± 0.12
CG T78G T79G G80T A81C | -3.25 ± 1.3 | -2.44 ± 0.79
CG T41A A44G A46T A50C A53T A54C C55A T56C T57A A59T C60T A62C | -2.59 ± 1.4 | -3.65 ± 0.63
AG T86G | 0.305 ± 0.13 | -0.271 ± 0.068
CG T110A T111A T112A T113A | -0.328 ± 0.56 | -0.587 ± 0.42
CG T79A G80C A81T T82A | -2.46 ± 2 | -1.87 ± 0.95
CG T104C | -0.483 ± 0.33 | -0.257 ± 0.037
CG T104G | -0.2 ± 0.48 | -0.0872 ± 0.27
CG T104A | -0.147 ± 0.15 | -0.341 ± 0.23
CG T78G T79G | 0.377 ± 0.26 | 0.387 ± 0.84
CG T25G G26T | -0.611 ± 0.7 | -0.737 ± 0.33
CG T74G A75C | -2.15 ± 0.86 | -2.21 ± 0.94
CG T39A A40T | 0.255 ± 0.22 | 0.244 ± 0.039

Variant | relative integration efficiency (log2) [1] | relative integration efficiency (log2) [2]
CG T86A C87G A88T C89G | 0.1 ± 0.54 | -0.174 ± 0.12
CG T43G A44C A46G T48A C49G A50C C52A A53G T56A T57C A58C | -2.81 ± 2.2 | -2.55 ± 1
CG T104A T105A | -0.853 ± 0.48 | -0.642 ± 0.47
CG T30G T31G | -1.56 ± 0.31 | -0.964 ± 0.45
CG T48G C49A A50C G51T C52A A53C A54C C55A T56G T57G A58C | -3.04 ± 1.4 | -2.79 ± 0.63
CG T76G A77C T78G T79G | -3.06 ± 1.4 | -2.26 ± 0.77
CG T110G T111G | -1.08 ± 0.37 | -1.16 ± 0.65
CG T56G T57G A58C A59C | -2.31 ± 0.94 | -1.82 ± 0.62
CG T25G T79G T105G | -3.03 ± 1.7 | -2.73 ± 1.2
CG T32G A33C T86G C87A T112G T113G | -0.849 ± 0.54 | -0.843 ± 0.24
CG T20G | -0.668 ± 0.64 | -0.834 ± 0.6
CG T20C | -1.08 ± 0.45 | -1.07 ± 0.49
CG T45C | -0.0724 ± 0.056 | -0.326 ± 0.093
CG T45A | 0.403 ± 0.63 | -0.0115 ± 0.062
CG T45G | -0.109 ± 0.19 | -0.0406 ± 0.053
CG T74G A75C T76G A77C | -2.54 ± 1.3 | -1.95 ± 0.99
CG T42A T43A A44T T45A | 0.262 ± 0.049 | 0.271 ± 0.16
CG T39G A40C T41G T42G | 0.3517 ± 0.00068 | 0.179 ± 0.11
CG T110C | -0.691 ± 0.63 | -0.405 ± 0.13
CG T110A | 0.258 ± 0.5 | -0.016 ± 0.099
CG T110G | -0.561 ± 0.13 | -0.516 ± 0.25
CG T104G T105G G106T A107C | -2.25 ± 1.7 | -2.11 ± 0.66
CG T108A A109T | -0.852 ± 0.53 | -0.848 ± 0.47
CG T79G G80T | -0.966 ± 0.14 | -1.24 ± 0.76

Variant | relative integration efficiency (log2) [1] | relative integration efficiency (log2) [2]
CG T41A | -0.651 ± 0.73 | 0.0865 ± 0.047
CG T41C | 1.29 ± 0.16 | 0.304 ± 0.26
CG T41G | 0.12 ± 0.36 | -0.128 ± 0.018
CG T28A A29T T30A T31A | -0.974 ± 0.69 | -1.12 ± 0.46
CG T57A A58T A59T C60G | 1.28 ± 0.42 | 0.281 ± 1
CG T48A C49G A50T G51C | -2.64 ± 0.41 | -2.28 ± 0.62
CG T48A C49G A50T G51C C52G A53T A54T C55G T56A T57A A58T | -2.96 ± 2.6 | -3.43 ± 1.1
CG T84C | -0.172 ± 0.0094 | -0.158 ± 0.056
CG T84G | -0.943 ± 0.55 | -0.591 ± 0.3
CG T84A | -0.0315 ± 0.47 | -0.0633 ± 0.033
CG T76G A77C | -0.497 ± 0.94 | -0.785 ± 0.46
CG T41A T42A | 0.775 ± 0.0053 | 0.864 ± 0.047
AG T86G C87A A88C | 0.0813 ± 0.34 | -0.158 ± 0.041
CG T41A T42A T43A A44T | 0.249 ± 0.14 | 0.195 ± 0.17
CG T82C | 0.362 ± 0.73 | 0.536 ± 0.29
CG T82G | -0.227 ± 0.47 | -0.597 ± 0.43
CG T32G A33C A34C T35G | 0.074 ± 0.25 | -0.364 ± 0.079
CG T74C | -0.976 ± 1.2 | -1.33 ± 0.63
CG T74A | -0.12 ± 0.44 | -0.331 ± 0.2
CG T74G | -1.2 ± 1.2 | -1.35 ± 0.79
